Measured values taken from patent publication US20240287163A1 (Chugai, published 2024).
Residue numbers refer to the chain shown, from its start.

T1: recombinant cynomolgus C1r2s2 tetramer (cynomolgus monkey, limits assumed)
T1 construct: also called cyC1r2s2; monkey C1r2s2
T1 chain 1: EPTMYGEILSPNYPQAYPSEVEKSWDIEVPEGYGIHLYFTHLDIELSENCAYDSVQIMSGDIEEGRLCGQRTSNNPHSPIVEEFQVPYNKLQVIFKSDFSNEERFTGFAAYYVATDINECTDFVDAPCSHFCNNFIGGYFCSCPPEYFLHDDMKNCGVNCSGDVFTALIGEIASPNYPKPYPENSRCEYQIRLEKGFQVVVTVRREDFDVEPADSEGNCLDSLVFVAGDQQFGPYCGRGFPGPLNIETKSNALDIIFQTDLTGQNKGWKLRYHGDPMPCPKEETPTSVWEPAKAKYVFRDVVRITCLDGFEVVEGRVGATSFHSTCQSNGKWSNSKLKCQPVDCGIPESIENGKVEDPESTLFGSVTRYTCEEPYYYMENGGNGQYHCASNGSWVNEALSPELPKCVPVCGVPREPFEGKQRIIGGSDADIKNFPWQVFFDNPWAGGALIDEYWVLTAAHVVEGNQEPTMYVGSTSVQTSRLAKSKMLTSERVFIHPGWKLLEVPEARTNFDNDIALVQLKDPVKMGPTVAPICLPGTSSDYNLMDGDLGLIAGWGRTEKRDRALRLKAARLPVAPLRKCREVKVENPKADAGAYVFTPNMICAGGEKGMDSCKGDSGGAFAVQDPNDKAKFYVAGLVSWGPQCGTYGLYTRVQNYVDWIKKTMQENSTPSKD
T1 chain 2: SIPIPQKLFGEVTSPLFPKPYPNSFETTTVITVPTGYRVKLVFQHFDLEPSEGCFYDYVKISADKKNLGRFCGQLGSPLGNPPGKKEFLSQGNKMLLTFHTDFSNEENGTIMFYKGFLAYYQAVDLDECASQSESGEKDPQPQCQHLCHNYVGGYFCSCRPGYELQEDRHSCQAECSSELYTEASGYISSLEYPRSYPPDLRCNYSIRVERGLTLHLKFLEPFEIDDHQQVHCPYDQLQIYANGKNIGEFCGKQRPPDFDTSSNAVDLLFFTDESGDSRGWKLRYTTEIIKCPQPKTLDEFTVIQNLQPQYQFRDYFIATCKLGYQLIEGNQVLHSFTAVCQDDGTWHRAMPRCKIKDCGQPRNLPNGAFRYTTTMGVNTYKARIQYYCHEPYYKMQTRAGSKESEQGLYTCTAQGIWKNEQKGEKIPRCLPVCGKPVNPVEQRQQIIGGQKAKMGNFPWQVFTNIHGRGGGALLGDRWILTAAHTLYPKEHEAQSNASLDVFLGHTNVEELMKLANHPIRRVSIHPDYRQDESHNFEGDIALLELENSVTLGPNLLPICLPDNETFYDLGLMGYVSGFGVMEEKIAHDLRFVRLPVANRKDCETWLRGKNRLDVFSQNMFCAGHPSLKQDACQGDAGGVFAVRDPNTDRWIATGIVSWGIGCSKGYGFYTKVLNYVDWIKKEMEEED

B1: recombinant human C1r2s2 tetramer (other)
chain 1: EPTMYGEILSPNYPQAYPSEVEKSWDIEVPEGYGIHLYFTHLDIELSENCAYDSVQIISGDTEEGRLCGQRSSNNPHSPIVEEFQVPYNKLQVIFKSDFSNEERFTGFAAYYVATDINECTDFVDVPCSHFCNNFIGGYFCSCPPEYFLHDDMKNCGVNCSGDVFTALIGEIASPNYPKPYPENSRCEYQIRLEKGFQVVVTLRREDFDVEAADSAGNCLDSLVFVAGDRQFGPYCGHGFPGPLNIETKSNALDIIFQTDLTGQKKGWKLRYHGDPMPCPKEDTPNSVWEPAKAKYVFRDVVQITCLDGFEVVEGRVGATSFYSTCQSNGKWSNSKLKCQPVDCGIPESIENGKVEDPESTLFGSVIRYTCEEPYYYMENGGGGEYHCAGNGSWVNEVLGPELPKCVPVCGVPREPFEEKQRIIGGSDADIKNFPWQVFFDNPWAGGALINEYWVLTAAHVVEGNREPTMYVGSTSVQTSRLAKSKMLTPEHVFIHPGWKLLEVPEGRTNFDNDIALVRLKDPVKMGPTVSPICLPGTSSDYNLMDGDLGLISGWGRTEKRDRAVRLKAARLPVAPLRKCKEVKVEKPTADAEAYVFTPNMICAGGEKGMDSCKGDSGGAFAVQDPNDKTKFYAAGLVSWGPQCGTYGLYTRVKNYVDWIMKTMQENSTPRED
chain 2: SIPIPQKLFGEVTSPLFPKPYPNNFETTTVITVPTGYRVKLVFQQFDLEPSEGCFYDYVKISADKKSLGRFCGQLGSPLGNPPGKKEFMSQGNKMLLTFHTDFSNEENGTIMFYKGFLAYYQAVDLDECASRSKLGEEDPQPQCQHLCHNYVGGYFCSCRPGYELQEDRHSCQAECSSELYTEASGYISSLEYPRSYPPDLRCNYSIRVERGLTLHLKFLEPFDIDDHQQVHCPYDQLQIYANGKNIGEFCGKQRPPDLDTSSNAVDLLFFTDESGDSRGWKLRYTTEIIKCPQPKTLDEFTIIQNLQPQYQFRDYFIATCKQGYQLIEGNQVLHSFTAVCQDDGTWHRAMPRCKIKDCGQPRNLPNGDFRYTTTMGVNTYKARIQYYCHEPYYKMQTRAGSRESEQGVYTCTAQGIWKNEQKGEKIPRCLPVCGKPVNPVEQRQQIIGGQKAKMGNFPWQVFTNIHGRGGGALLGDRWILTAAHTLYPKEHEAQSNASLDVFLGHTNVEELMKLGNHPIRRVSVHPDYRQDESYNFEGDIALLELENSVTLGPNLLPICLPDNDTFYDLGLMGYVSGFGVMEEKIAHDLRFVRLPVANPQACENWLRGKNRMDVFSQNMFCAGHPSLKQDACQGDAGGVFAVRDPNTDRWVATGIVSWGIGCSRGYGFYTKVLNYVDWIKKEMEEED
notes: C1s and C1r co-expressed in HEK293 and purified from the supernatant as tetramer; also called hC1r2s2
B2: COS0637pHv21-G1A3FcgSil+LowpI (antibody, V domains shown)
VH: QVQLVESGGGVVQPGRSLRLSCAASGFTFSAYAMNWIRQPPGKGLEWIGLIYGSGHEFYASWAEERVTISVDTSKNQFSLKLSSVTAADTAVYYCARGRSKNYNSDFHLWGQGTLVTVSS
VL: DIQMTQSPSSLSASVGDRVTITCQAHEILHDKKNLAWYQQKPGQPPKLLIYSASILESGVPSRFSGSGSGTDFTLTISSLQPEDFATYYCHGEFSHGSGDLNHFGQGTKVEIKR
notes: VH 24, VL 47, CH 45, CL 23
B3: COS0637pHv25-G1A3FcgSil+LowpI (antibody, V domains shown)
VH: B2 VH with I51M
VL: B2 VL with S52G, I55Q, L56R, S95P, G97S, G99A
notes: VH 32, VL 55, CH 45, CL 23
B4: COS0637pHv23-G1A3FcgSil+LowpI (antibody, V domains shown)
VH: B2 VH with S54T, L109I
VL: B2 VL with G99A
notes: VH 28, VL 51, CH 45, CL 23

Tests used:
[1] = molecular target: T2, native human C1q (CompTech) (human, UniProt P02745 23-245; P02746 28-253; P02747 29-245); test: SPR (BIACORE T200, 37 C, pH 7.4), hC1r2s2 captured by immobilised IPN009VH2Vk3-SG1148, hC1q 100 nM then buffer, response normalised to C1r2s2 = 100 RU
T2 construct: the three subunits are from general knowledge; also called hC1q
T2 sequence (P02745 23-245 limits assumed, chain 1 of 3): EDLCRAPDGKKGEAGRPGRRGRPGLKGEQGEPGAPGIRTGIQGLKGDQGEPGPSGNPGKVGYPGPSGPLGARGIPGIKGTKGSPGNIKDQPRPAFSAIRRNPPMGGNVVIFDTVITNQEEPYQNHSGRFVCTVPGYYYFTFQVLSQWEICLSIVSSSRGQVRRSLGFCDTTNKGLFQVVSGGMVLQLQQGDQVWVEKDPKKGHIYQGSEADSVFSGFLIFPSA
T2 sequence (P02746 28-253 limits assumed, chain 2 of 3): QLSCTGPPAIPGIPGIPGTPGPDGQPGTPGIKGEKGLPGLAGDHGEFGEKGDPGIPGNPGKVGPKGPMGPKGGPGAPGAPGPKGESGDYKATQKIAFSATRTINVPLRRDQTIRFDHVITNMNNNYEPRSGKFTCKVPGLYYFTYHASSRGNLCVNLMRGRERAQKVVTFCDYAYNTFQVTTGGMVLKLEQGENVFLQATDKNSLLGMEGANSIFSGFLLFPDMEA
T2 sequence (P02747 29-245 limits assumed, chain 3 of 3): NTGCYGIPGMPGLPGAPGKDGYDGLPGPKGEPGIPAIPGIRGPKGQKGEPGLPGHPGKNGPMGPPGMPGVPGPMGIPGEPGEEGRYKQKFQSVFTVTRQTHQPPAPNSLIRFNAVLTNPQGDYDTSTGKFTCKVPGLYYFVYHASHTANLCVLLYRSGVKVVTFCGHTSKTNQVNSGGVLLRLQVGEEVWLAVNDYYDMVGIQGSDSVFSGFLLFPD
Excerpt: As the amount of capture, 200 resonance unit (RU) was aimed. […] The sensor surface was regenerated every cycle, using 3 M MgCl₂ (prepared in-house). The sensorgrams were obtained using BIACORE® T200 evaluation software, version 2.0 (Cytiva). […] For comparison of these sensorgrams, binding response of C1r2s2 was normalized as 100 RU.

[2] = molecular target: B1; test: SPR (Biacore T200), 37 C, pH 6.0; hC1r2s2 captured by IPN009, antibody as analyte
Method: (§1) The binding property of each sample at pH7.4 and pH6.0 was determined at 37° C. using BIACORE® T200 instrument (Cytiva). […] 20 mM ACES, 150 mM NaCl, 1.2 mM CaCl₂, 1 mg/mL BSA (not containing IgG), 1 mg/mL CMD, 0.05% Tween® 20, 0.005 w/v % NaN₃, pH7.4 or pH6.0 buffer was used as the running buffer. […] The antibody solution was added thereto at 30 μL/min for 120 seconds, the running buffer was then added at 30 μL/min for 180 seconds, and the dissociation constant (KD) of each antibody for hC1r2s2 and cyC1r2s2 was calculated. […] The sensor surface was regenerated every cycle, using 3 M MgCl2 (prepared in-house). The KD value was calculated using BIACORE® T200 evaluation software version 2.0 (Cytiva). The binding strengths under each pH condition were compared by dividing the KD value at pH6.0 with the KD value at pH7.4.

[3] = molecular target: T1, recombinant cynomolgus C1r2s2 tetramer; test: SPR (Biacore T200), 37 C, pH 7.4; cyC1r2s2 captured by IPN009, antibody as analyte
Method: as §1

[4] = molecular target: B1; test: SPR (Biacore T200), 37 C; ratio of KD at pH 6.0 to KD at pH 7.4
Method: as §1

[5] = molecular target: T1, recombinant cynomolgus C1r2s2 tetramer; test: as above
Method: as §1

[6] = molecular target: T1, recombinant cynomolgus C1r2s2 tetramer; test: SPR (Biacore T200), 37 C, pH 6.0; cyC1r2s2 captured by IPN009, antibody as analyte
Method: as §1

[7] = molecular target: B1; test: SPR (Biacore T200), 37 C, pH 7.4; hC1r2s2 captured by IPN009, antibody as analyte
Method: as §1

binding result [1]	Kd [2] [µM]	Kd [3] [µM]	KD (pH 6.0)/KD (pH 7.4) [4]	KD (pH 6.0)/KD (pH 7.4) [5]	Kd [6] [µM]	Kd [7] [µM]	Binder
binds	–	–	–	–	–	–	B1
–	0.0313	0.000346	120	182	0.0629	0.00026	B2
–	0.0213	0.000243	108	276	0.0671	0.000198	B3
–	0.0274	0.000334	110	139	0.0463	0.000249	B4
